This note sets out measurements from patent US20090162358A1 (GlaxoSmithKline, published 2009).

Test [1] deals with T1, human β-amyloid 1-40 (human, UniProt P05067 672-711).
T1 construct: domain: β-amyloid (1-40); Used in solution over captured antibody (Biacore) or coated on ELISA plates; also called human Aβ peptide (1-40); Aβ peptide (1-40)
The experiment in a line: SPR Biacore T100; antibody captured on anti-human IgG, Aβ 1-40 at 1-256 nM; 1:1 model. The protocol:
(§1) Anti-human IgG (Biacore BR-1008-39) was coupled to a CM5 biosensor chip by primary amine coupling. The anti-beta amyloid antibodies were captured on this surface. Beta amyloid (1-40) was then passed over at 256, 64, 16, 4 and 1 nM, with a 0 nM (ie buffer alone passed over the captured antibody surface) used for double referencing. […] The data was analysed using the 1:1 model inherent to the T100. The run was carried out at 25° C. and 37° C. using HBS-EP as the running buffer.

The target of test [2] is T1, human β-amyloid 1-40. The experiment in a line: SPR Biacore T100 at 37 C; antibody captured on anti-human IgG, Aβ 1-40 at 1-256 nM. The protocol: as §1
From this panel some constructs were also assessed for binding kinetics at physiological temperature.

In test [3] the target is T1, human β-amyloid 1-40. The experiment in a line: SPR Biacore 3000; mAb captured on anti-mouse IgG, Aβ 1-40 at 4-500 nM. The protocol:
(§2) Purified mouse antibody preparations were captured on a polyclonal anti-mouse IgG antibody chip surface. Freshly prepared human β-amyloid 1-40 was diluted down in HBS-EP buffer and passed over the captured antibody surface at concentrations ranging from 4-500 nM for 5 minutes. […] Regeneration was achieved via a pulse of 100 mM H₃PO₄. […] All runs were double referenced against a blank surface and blank buffer injections.

Test [4] deals with T2, N-terminal coupled CGGGEDVGSNKGAIIGLMVGG (22-38) ovalbumin conjugate (coupled by the N-terminus to ovalbumin).
T2 peptide: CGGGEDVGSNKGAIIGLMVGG
The experiment in a line: FMAT bead immunoassay, culture supernatant. The source says:
(§3) Each of the expressed antibodies contained in culture supernatant was then screened in an FMAT (Fluorescent Microvolume Assay Technology) homogenous immunoassay. 29 positive antibodies were identified from this screening cascade that were negative for ovalbumin protein passively absorbed to polystyrene beads but positive for: [0158] (i) N-terminal coupled […] (22-38) (SEQ ID No:73) ovalbumin conjugate bound to polystyrene beads, [0159] (ii) N-terminal biotinylated β-amyloid(1-40) peptide bound to streptavidin coated polystyrene beads, [0160] (iii) C-terminal biotinylated β-amyloid(1-40) peptide bound to streptavidin coated polystyrene beads and [0161] (iv) N-terminal biotinylated β-amyloid (24-34) peptide, residues 24-34 of β-amyloid being […] (SEQ ID No:8), bound to streptavidin coated polystyrene beads.

Test [5] has as its target T3, N-terminal biotinylated β-amyloid (24-34) peptide.
T3 peptide: Biotin-VGSNKGAIIGL
Description: FMAT bead immunoassay, culture supernatant.
From the text: as §3

The target in a further test is T4, ovalbumin protein (UniProt P01012 2-386).
T4 sequence (looked up): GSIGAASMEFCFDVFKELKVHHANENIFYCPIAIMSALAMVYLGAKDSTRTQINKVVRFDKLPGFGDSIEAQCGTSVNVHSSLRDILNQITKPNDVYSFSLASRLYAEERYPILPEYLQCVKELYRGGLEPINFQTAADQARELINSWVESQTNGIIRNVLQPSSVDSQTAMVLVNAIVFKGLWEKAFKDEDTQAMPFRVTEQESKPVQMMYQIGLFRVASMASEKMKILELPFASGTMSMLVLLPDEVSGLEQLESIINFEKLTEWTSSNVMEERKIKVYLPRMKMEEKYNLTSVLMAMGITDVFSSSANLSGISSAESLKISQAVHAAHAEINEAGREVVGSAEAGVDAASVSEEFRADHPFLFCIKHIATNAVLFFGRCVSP
Description: FMAT bead immunoassay, culture supernatant.
From the text: as §3

Test [6] addresses T1, human β-amyloid 1-40. The experiment in a line: SPR Biacore 3000; mAb captured on anti-mouse IgG; triplicate run. The protocol:
as §2

Residue numbers refer to the chain shown, from its start. Ends that are not written are not given here. * marks the point of attachment. Biotin = O=C1N[C@H]2[C@H](CS[C@H]2CCCCC(=O)*)N1

T1 sequence (P05067 672-711 limits assumed): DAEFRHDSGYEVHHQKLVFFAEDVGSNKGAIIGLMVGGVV

B1: humanised de-immunised construct H48L19 (antibody, human IgG1, V domains shown)
VH: QVQLVQSGAEVKEPGASVKVSCKGSGFNIHVYYVHWLRQLPEKGLEWIGRIDPENGETIYTPKFQDKATLTVDTSTDTAYMELSSLRSEDTAVYYCVSSGYWGQGTLVTVSS
VL: DIVMTQSPLSNPVTPGEPASISCRSSKSLLHRNGKTYLYWYLQKPGQSPQLLIYQMDHLASGVPDRFSSSGSGTDFTLKISRVEAEDVGVYYCAQNLELWTFGQGTKVEIK
B1 showed a Kd in the test with human β-amyloid 1-40 [1] of 3.15 nM.

B2: humanised de-immunised construct H49L20 (antibody, human IgG1, V domains shown)
VH: B1 VH with H30K, V31T
VL: B1 VL with K35I
In turn, B2 displayed a Kd with human β-amyloid 1-40 [1] of 2.23 nM.

B3: humanised de-immunised construct H51L21 (antibody, human IgG1, V domains shown)
VH: B1 VH with V31T
VL: B1 VL with H58N
Take B3: the dissociation constant (Kd) in the test with human β-amyloid 1-40 [2] came to 2.9 nM; with human β-amyloid 1-40 [1] it was 2.05 nM.

B4: humanised de-immunised construct H50L21 (antibody, human IgG1, V domains shown)
VH: B1 VH with K23T
VL: B1 VL with H58N
For B4, the Kd in the test with human β-amyloid 1-40 [2] was determined as 2.7 nM; with human β-amyloid 1-40 [1], 2.17 nM.

B5: humanised de-immunised construct H50L20 (antibody, human IgG1, V domains shown)
VH: B1 VH with K23T
VL: B1 VL with K35I
In the case of B5, the equilibrium dissociation constant (Kd) in the test with human β-amyloid 1-40 [2] was determined as 3.5 nM; in the test with human β-amyloid 1-40 [1] it was 2.5 nM.

B6: humanised de-immunised construct H49L21 (antibody, human IgG1, V domains shown)
VH: B1 VH with H30K, V31T
VL: B1 VL with H58N
B6 returned a Kd with human β-amyloid 1-40 [1] of 2.58 nM.

B7: humanised de-immunised construct H48L20 (antibody, human IgG1, V domains shown)
VH: B1 VH
VL: B1 VL with K35I
In the case of B7, the Kd with human β-amyloid 1-40 [2] worked out at 3.54 nM; in the test with human β-amyloid 1-40 [1], 2.02 nM.

B8: humanised de-immunised construct H51L19 (antibody, human IgG1, V domains shown)
VH: B1 VH with V31T
VL: B1 VL
B8 returned a Kd in the test with human β-amyloid 1-40 [1] of 2.65 nM.

B9: humanised de-immunised construct H51L20 (antibody, human IgG1, V domains shown)
VH: B1 VH with V31T
VL: B1 VL with K35I
As for B9, the results for the Kd in the test with human β-amyloid 1-40 [2] and with human β-amyloid 1-40 [1] were 3.89 nM and 2.23 nM, respectively.

B10: humanised de-immunised construct H50L19 (antibody, human IgG1, V domains shown)
VH: B1 VH with K23T
VL: B1 VL
Consider B10, for which the Kd with human β-amyloid 1-40 [1] is 2.76 nM.

B11: humanised de-immunised construct H49L19 (antibody, human IgG1, V domains shown)
VH: B1 VH with H30K, V31T
VL: B1 VL
In turn, B11 returned a Kd with human β-amyloid 1-40 [1] of 3.09 nM.

B12: humanised de-immunised construct H48L21 (antibody, human IgG1, V domains shown)
VH: B1 VH
VL: B1 VL with H58N
B12: the Kd with human β-amyloid 1-40 [2] is 2.69 nM; with human β-amyloid 1-40 [1] it was 2.01 nM.

B13: 2C1 mouse monoclonal antibody (antibody, V domains shown)
VH: EVQLQQSGAELVKPGASVKLSCTGSGFNIKVYYVHWLKQLTEQGLEWIGRIDPENGETIYAPKFQDKATLTVDTSSNTAYLQLSSLTSEDTAVYYCVSSGYWGQGTTLTVSS
VL: DIVMTQSAFSNPVTLGTSASISCRSSKSLLHRNGITYLYWYLQKPGQSPQLLIYQMSNLASGVPDRFTSSGSGTDFTLKISRVEAEDVGVYYCAQNLELWTFGGGTKLEIK
notes: Mouse hybridoma antibody
Molecule B13 showed a Kd with human β-amyloid 1-40 [3] of 1.95 nM. In addition, the koff in the test with human β-amyloid 1-40 [3] worked out at 0.000129 s⁻¹. For the same molecule, the kon in the test with human β-amyloid 1-40 [3] was determined as 66300 M⁻¹ s⁻¹. For the same molecule, the figures for the binding result (in test [4]; in test [5]; with ovalbumin protein) were “binds”, “binds” and “no binding”, respectively.

B14: 5C9 mouse monoclonal antibody (antibody, V domains shown)
VH: EVQLQQSGAEFVRPGASVKLSCTASGFNIKTYYIHWLKQRTDQGLEWIGRIDPEDGETKFGPKFRGKATLTADTSSNTASLQLSSLTSEDTGVYYCVTSGYWGQGTTLSVSS
VL: B13 VL with S7A, R32S, T68S, K79R
notes: Mouse hybridoma antibody
On to B14, for which, in the test with human β-amyloid 1-40 [3], the affinity, expressed as Kd, was 2.69 nM; the off-rate (koff) came to 0.000164 s⁻¹; the kon turned out to be 61100 M⁻¹ s⁻¹. Further, the binding result in test [4] is recorded as “binds”. Besides, the binding result in test [5] is “binds”. In the test with ovalbumin protein, the binding result is listed as “no binding”.

B15: 2E11 mouse monoclonal antibody (antibody, V domains shown)
VH: B13 VH with L11V, G24A, V34I, I59K, A61V, D66G, Q82H, A92G, S98T
VL: B13 VL with S7A, T14A, R32S, T68S, K79R
notes: Mouse hybridoma antibody
In the test with human β-amyloid 1-40 [3], B15 gave a Kd of 2.01 nM. The same molecule gave a koff with human β-amyloid 1-40 [3] of 0.00017 s⁻¹. For the same molecule, the kon with human β-amyloid 1-40 [3] came out at 84500 M⁻¹ s⁻¹. Moreover, the binding result in test [4] is “binds”; in test [5], “binds”; with ovalbumin protein, “no binding”.

B16: 16D4 mouse monoclonal antibody (antibody, V domains shown)
VH: B13 VH with G24A, V31D, V34M, I59Q, D66G, T69S, V72A, Q82H
VL: B13 VL with S7A, R32S, T68S, K79R
notes: Mouse hybridoma antibody
As to B16, the Kd with human β-amyloid 1-40 [3] was determined as 7.62 nM. Also, the koff with human β-amyloid 1-40 [3] stood at 0.000618 s⁻¹. Moreover, the kon with human β-amyloid 1-40 [3] was 81200 M⁻¹ s⁻¹. Moreover, the binding result is “binds” in test [4], “binds” in test [5] and “no binding” in the test with ovalbumin protein.

B17: 14B3 mouse monoclonal antibody (antibody, V domains shown)
VH: B13 VH with K13E, I59L, A61T, D66G, L70F
VL: B13 VL
notes: Mouse hybridoma antibody
Take B17: in the test with human β-amyloid 1-40 [3], the dissociation constant (Kd) was 0.95 nM, the dissociation rate constant (koff) was 7.11e-05 s⁻¹ and the kon is 74800 M⁻¹ s⁻¹. Besides, the binding result in test [4] is listed as “binds”. In addition, in test [5], the binding result is given as “binds”. In addition, the binding result with ovalbumin protein is on record as “no binding”.

B18: 5D1 mouse monoclonal antibody (antibody, V domains shown)
VH: B13 VH with I59K, Q82H
VL: B13 VL
notes: Mouse hybridoma antibody
On to B18, for which the Kd in the test with human β-amyloid 1-40 [6] came out at 2.05 nM; with human β-amyloid 1-40 [3] it was 2.57 nM. Moreover, the koff in the test with human β-amyloid 1-40 [6] is 0.000135 s⁻¹; with human β-amyloid 1-40 [3], 0.000147 s⁻¹. For the same molecule, the kon came to 65800 M⁻¹ s⁻¹ with human β-amyloid 1-40 [6] and 57000 M⁻¹ s⁻¹ in the test with human β-amyloid 1-40 [3]. For the same molecule, the binding result in test [4] is on record as “binds”; in test [5], “binds”; with ovalbumin protein, “no binding”.

B19: 4D4 mouse monoclonal antibody (antibody, V domains shown)
VH: B13 VH with K13E, I59L, A61T, D66G, S84N, T107S
VL: B13 VL
notes: Mouse hybridoma antibody
Regarding B19, in the test with human β-amyloid 1-40 [3], the affinity, expressed as Kd, was 1.13 nM; the koff was determined as 8.27e-05 s⁻¹; the kon worked out at 73200 M⁻¹ s⁻¹. Also, the binding result in test [4] is recorded as “binds”. Further, the binding result in test [5] is on record as “binds”. Also, the binding result with ovalbumin protein is on record as “no binding”.
